# Laboratory results: publication PMC6555819, “Comprehensive study of nuclear receptor DNA binding provides a revised framework for understanding receptor specificity”
# Numbering of substitutions follows the chain as printed.
# B1: NRC3_random_hg19_360_o1 (dsDNA)
# DNA 1: GCGCCTGCATAGCCATTCACAGACACTGCCAATACCGCGATTGACAGCGTAGAATGAAGG
# DNA 2: CCTTCATTCTACGCTGTCAATCGCGGTATTGGCAGTGTCTGTGAATGGCTATGCAGGCGC
# B2: NRC3_wobSeed121_DR5_T8A_o1 (dsDNA)
# DNA 1: GCCAAACAAGGTCACCGGAAGGTCAAAGTCCGCATGGCGATTGACAGCGTAGAATGAAGG
# DNA 2: CCTTCATTCTACGCTGTCAATCGCCATGCGGACTTTGACCTTCCGGTGACCTTGTTTGGC
# B3: NRC3_wobSeed101_DR4_C8G_o1 (dsDNA)
# DNA 1: GCCCTTAGGGGTCACTCCAGGTTATAGCATCGGAGTGCGATTGACAGCGTAGAATGAAGG
# DNA 2: CCTTCATTCTACGCTGTCAATCGCACTCCGATGCTATAACCTGGAGTGACCCCTAAGGGC
# B4: NRC3_wobSeed73_DR3_T8G_o1 (dsDNA)
# DNA 1: GCCAAACGAGGTCACAGAGGTCAAAGTCCGTGCGTAGCGATTGACAGCGTAGAATGAAGG
# DNA 2: CCTTCATTCTACGCTGTCAATCGCTACGCACGGACTTTGACCTCTGTGACCTCGTTTGGC
# B5: NRC3_wobSeed25_DR1_T8A_o1 (dsDNA)
# DNA 1: GCCAAACAAGGTCAAAGGTCAAAGTCGAGCCAACCAGCGATTGACAGCGTAGAATGAAGG
# DNA 2: CCTTCATTCTACGCTGTCAATCGCTGGTTGGCTCGACTTTGACCTTTGACCTTGTTTGGC
# B6: NRC3_wobSeed25_DR1_T8G_o1 (dsDNA)
# DNA 1: B5 DNA 1 with A8G
# DNA 2: B5 DNA 2 with T53C
# B7: NRC3_wobSeed117_DR4_A23C_o1 (dsDNA)
# DNA 1: GCCGTCAAAGTTCAACTAAGGTCACGTAAAGCACGCGCGATTGACAGCGTAGAATGAAGG
# DNA 2: CCTTCATTCTACGCTGTCAATCGCGCGTGCTTTACGTGACCTTAGTTGAACTTTGACGGC
# B8: NRC3_wobSeed141_DR5_A24C_o1 (dsDNA)
# DNA 1: GCAGTCAAAGTTCAGGACGAGGTCACGTAAAGCACGGCGATTGACAGCGTAGAATGAAGG
# DNA 2: CCTTCATTCTACGCTGTCAATCGCCGTGCTTTACGTGACCTCGTCCTGAACTTTGACTGC
# Target: RXRa (Homo sapiens, UniProt P19793)
# Sequence (P19793 whole entry): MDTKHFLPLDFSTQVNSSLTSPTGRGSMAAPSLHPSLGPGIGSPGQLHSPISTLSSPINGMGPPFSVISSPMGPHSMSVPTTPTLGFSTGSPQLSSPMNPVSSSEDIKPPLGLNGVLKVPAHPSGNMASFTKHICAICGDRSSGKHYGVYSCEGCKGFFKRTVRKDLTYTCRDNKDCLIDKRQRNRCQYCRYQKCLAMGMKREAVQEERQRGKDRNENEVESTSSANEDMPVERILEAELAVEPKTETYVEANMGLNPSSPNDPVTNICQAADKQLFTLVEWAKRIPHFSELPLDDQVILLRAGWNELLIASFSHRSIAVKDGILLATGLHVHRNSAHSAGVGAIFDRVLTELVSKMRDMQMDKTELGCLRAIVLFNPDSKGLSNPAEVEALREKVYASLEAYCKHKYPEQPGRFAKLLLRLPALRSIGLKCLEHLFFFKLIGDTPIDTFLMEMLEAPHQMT
# Experiment: no ligand; PBM; 180 nM; PBS pH 7.4, 2% milk, 0.02% Triton X-100, 1 mM DTT, BSA, 0.4 mg/ml salmon testes DNA
# Conditions: tags: His cleaved; chain copies: 2; label: surface-attached array probe
row,Binder,binding signal
1,B1,-0.49 PBM z-score against 500 random probes
2,B2,8.89 PBM z-score against 500 random probes
3,B3,8.62 PBM z-score against 500 random probes
4,B4,9.83 PBM z-score against 500 random probes
5,B5,11.2 PBM z-score against 500 random probes
6,B6,11 PBM z-score against 500 random probes

# Target: THRa:RXRa (Homo sapiens, UniProt P10827;P19793 full;full)
# Sequence (P10827 other isoform, or with tags, fused parts or gaps, chain 1 of 2): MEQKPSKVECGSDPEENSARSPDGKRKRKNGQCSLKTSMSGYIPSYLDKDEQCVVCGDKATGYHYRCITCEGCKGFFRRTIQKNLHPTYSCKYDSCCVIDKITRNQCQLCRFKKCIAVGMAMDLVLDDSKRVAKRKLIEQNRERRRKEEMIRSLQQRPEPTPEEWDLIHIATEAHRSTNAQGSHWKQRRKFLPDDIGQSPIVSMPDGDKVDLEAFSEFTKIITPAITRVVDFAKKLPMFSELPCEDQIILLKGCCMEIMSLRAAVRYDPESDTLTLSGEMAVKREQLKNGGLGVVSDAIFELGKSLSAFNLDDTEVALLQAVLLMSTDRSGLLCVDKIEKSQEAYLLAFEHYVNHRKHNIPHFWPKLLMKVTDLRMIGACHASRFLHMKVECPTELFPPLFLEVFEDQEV
# Sequence (P19793 whole entry, chain 2 of 2): as the sequence (P19793 whole entry) above
# Experiment: no ligand; PBM; 90 nM : 90 nM RXRa; PBS pH 7.4, 2% milk, 0.02% Triton X-100, 1 mM DTT, BSA, 0.4 mg/ml salmon testes DNA
# Conditions: tags: His kept;His cleaved; copies: 1;1; label: surface-attached array probe
row,Binder,binding signal
1,B7,5.72 PBM z-score against 500 random probes
2,B1,-0.43 PBM z-score against 500 random probes
3,B8,5.13 PBM z-score against 500 random probes
4,B2,5.05 PBM z-score against 500 random probes
5,B3,5.63 PBM z-score against 500 random probes
6,B4,5.25 PBM z-score against 500 random probes
7,B5,5.07 PBM z-score against 500 random probes
8,B6,5.46 PBM z-score against 500 random probes

# Target: RARb:RXRa (Homo sapiens, UniProt P10826;P19793 full;full)
# Sequence (P10826 whole entry, chain 1 of 2): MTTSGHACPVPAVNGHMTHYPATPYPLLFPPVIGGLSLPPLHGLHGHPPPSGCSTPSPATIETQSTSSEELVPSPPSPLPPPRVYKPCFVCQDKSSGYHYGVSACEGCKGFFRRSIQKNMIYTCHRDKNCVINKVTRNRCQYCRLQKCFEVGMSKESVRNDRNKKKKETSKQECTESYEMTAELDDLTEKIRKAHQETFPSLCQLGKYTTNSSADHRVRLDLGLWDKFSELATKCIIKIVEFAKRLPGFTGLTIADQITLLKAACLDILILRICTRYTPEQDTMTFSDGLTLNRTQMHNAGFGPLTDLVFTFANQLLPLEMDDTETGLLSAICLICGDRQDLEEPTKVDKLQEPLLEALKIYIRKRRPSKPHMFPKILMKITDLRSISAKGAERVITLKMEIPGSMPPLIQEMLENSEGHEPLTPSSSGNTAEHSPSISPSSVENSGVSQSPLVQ
# Sequence (P19793 whole entry, chain 2 of 2): as the sequence (P19793 whole entry) above
# Experiment: no ligand; PBM; 270 nM : 90 nM RXRa; PBS pH 7.4, 2% milk, 0.02% Triton X-100, 1 mM DTT, BSA, 0.4 mg/ml salmon testes DNA
# Conditions: tags: His kept;His cleaved; copies: 1;1; label: surface-attached array probe
# Summary of the method: (§1)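 Each nuclear receptor dimer, without ligand, was incubated for 1 h on custom Agilent 4×180K protein-binding microarrays. Binding was detected with antibodies against each partner (one per run), and scanned fluorescence was regression-normalized. The binding z-scores are referenced to random human genomic background probes.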
row,Binder,binding signal
1,B7,6.07 PBM z-score against 500 random probes
2,B8,5.48 PBM z-score against 500 random probes
3,B2,6.21 PBM z-score against 500 random probes
4,B4,5.94 PBM z-score against 500 random probes
5,B5,6.19 PBM z-score against 500 random probes
6,B6,6.33 PBM z-score against 500 random probes

# Target: VDR:RXRa (Homo sapiens, UniProt P11473;P19793 full;full)
# Sequence (P11473 whole entry, chain 1 of 2): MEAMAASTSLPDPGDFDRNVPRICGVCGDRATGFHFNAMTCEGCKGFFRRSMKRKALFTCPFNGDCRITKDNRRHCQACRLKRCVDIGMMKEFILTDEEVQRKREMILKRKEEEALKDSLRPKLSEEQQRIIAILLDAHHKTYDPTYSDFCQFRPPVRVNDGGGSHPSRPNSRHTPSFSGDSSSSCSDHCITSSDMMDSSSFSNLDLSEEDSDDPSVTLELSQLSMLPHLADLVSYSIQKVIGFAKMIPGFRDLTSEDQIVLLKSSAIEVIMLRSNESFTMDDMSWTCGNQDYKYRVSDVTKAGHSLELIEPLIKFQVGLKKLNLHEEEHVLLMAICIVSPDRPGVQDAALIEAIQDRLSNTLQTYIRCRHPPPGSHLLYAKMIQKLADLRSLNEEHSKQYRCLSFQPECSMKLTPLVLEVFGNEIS
# Sequence (P19793 whole entry, chain 2 of 2): as the sequence (P19793 whole entry) above
# Experiment: as above
# Conditions: tags: His kept;His cleaved; copies: 1;1; label: surface-attached array probe
# Summary of the method: as §1
row,Binder,binding signal
1,B7,7.49 PBM z-score against 500 random probes
2,B8,6.63 PBM z-score against 500 random probes
3,B2,7.25 PBM z-score against 500 random probes
4,B3,6.64 PBM z-score against 500 random probes
5,B4,8.86 PBM z-score against 500 random probes
6,B5,7.62 PBM z-score against 500 random probes
7,B6,8.02 PBM z-score against 500 random probes

# Target: LXRa:RXRa (Homo sapiens, UniProt Q13133;P19793 full;full)
# Sequence (Q13133 whole entry, chain 1 of 2): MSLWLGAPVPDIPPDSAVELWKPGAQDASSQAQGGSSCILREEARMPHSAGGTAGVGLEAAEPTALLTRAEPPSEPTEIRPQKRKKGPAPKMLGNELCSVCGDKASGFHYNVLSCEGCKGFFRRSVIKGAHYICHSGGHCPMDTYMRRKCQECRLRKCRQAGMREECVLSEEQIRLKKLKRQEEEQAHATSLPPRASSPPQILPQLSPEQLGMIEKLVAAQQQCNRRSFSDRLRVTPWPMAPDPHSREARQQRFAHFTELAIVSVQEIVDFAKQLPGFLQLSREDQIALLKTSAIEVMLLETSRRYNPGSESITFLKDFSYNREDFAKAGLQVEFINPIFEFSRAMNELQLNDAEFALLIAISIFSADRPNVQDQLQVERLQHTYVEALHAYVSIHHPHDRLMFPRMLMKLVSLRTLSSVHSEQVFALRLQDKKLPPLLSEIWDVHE
# Sequence (P19793 whole entry, chain 2 of 2): as the sequence (P19793 whole entry) above
# Experiment: as above
# Conditions: tags: His kept;His cleaved; copies: 1;1; label: surface-attached array probe
# Summary of the method: as §1
row,Binder,binding signal
1,B7,8.08 PBM z-score against 500 random probes
2,B2,7.26 PBM z-score against 500 random probes
3,B3,8.6 PBM z-score against 500 random probes
4,B4,7.82 PBM z-score against 500 random probes
5,B5,8.24 PBM z-score against 500 random probes
6,B6,8.54 PBM z-score against 500 random probes

# Target: PPARa:RXRa (Homo sapiens, UniProt Q07869;P19793 full;full)
# Sequence (Q07869 whole entry, chain 1 of 2): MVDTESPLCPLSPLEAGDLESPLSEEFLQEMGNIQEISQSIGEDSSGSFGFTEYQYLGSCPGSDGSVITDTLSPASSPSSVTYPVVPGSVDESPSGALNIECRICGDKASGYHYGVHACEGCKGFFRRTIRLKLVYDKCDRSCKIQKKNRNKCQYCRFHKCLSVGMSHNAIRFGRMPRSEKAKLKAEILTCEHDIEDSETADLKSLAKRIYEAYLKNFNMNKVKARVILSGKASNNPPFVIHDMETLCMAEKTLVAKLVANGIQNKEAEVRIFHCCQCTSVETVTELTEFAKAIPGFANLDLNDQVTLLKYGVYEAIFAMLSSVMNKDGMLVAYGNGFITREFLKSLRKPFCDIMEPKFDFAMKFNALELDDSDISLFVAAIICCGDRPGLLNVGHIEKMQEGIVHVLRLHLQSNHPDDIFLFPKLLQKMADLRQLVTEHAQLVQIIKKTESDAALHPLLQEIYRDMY
# Sequence (P19793 whole entry, chain 2 of 2): as the sequence (P19793 whole entry) above
# Experiment: as above
# Conditions: tags: GST kept;His cleaved; copies: 1;1; label: surface-attached array probe
# Summary of the method: as §1
row,Binder,binding signal
1,B1,-0.57 PBM z-score against 500 random probes
2,B3,6.76 PBM z-score against 500 random probes
3,B4,7.16 PBM z-score against 500 random probes

# Target: LXRb:RXRa (Homo sapiens, UniProt P55055;P19793 full;full)
# Sequence (P55055 whole entry, chain 1 of 2): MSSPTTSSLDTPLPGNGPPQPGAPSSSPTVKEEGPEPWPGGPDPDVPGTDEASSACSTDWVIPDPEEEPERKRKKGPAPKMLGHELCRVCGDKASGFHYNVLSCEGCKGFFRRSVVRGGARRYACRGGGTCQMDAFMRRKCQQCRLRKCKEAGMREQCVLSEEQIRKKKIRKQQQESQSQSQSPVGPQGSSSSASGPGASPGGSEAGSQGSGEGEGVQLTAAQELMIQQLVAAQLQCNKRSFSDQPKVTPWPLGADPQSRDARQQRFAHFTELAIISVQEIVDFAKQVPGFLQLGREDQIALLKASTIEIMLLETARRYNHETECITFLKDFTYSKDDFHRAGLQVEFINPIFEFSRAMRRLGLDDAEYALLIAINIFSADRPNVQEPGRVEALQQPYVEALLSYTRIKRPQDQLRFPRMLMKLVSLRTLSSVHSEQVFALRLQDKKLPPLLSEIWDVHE
# Sequence (P19793 whole entry, chain 2 of 2): as the sequence (P19793 whole entry) above
# Experiment: as above
# Conditions: tags: His kept;His cleaved; copies: 1;1; label: surface-attached array probe
# Summary of the method: as §1
row,Binder,binding signal
1,B7,7.09 PBM z-score against 500 random probes
2,B1,-0.18 PBM z-score against 500 random probes
3,B2,7.08 PBM z-score against 500 random probes
4,B3,7.21 PBM z-score against 500 random probes
5,B4,7.74 PBM z-score against 500 random probes
6,B5,8.13 PBM z-score against 500 random probes
7,B6,8.31 PBM z-score against 500 random probes

# Target: FXR:RXRa (Homo sapiens, UniProt Q96RI1;P19793 full;full)
# Sequence (Q96RI1 whole entry, chain 1 of 2): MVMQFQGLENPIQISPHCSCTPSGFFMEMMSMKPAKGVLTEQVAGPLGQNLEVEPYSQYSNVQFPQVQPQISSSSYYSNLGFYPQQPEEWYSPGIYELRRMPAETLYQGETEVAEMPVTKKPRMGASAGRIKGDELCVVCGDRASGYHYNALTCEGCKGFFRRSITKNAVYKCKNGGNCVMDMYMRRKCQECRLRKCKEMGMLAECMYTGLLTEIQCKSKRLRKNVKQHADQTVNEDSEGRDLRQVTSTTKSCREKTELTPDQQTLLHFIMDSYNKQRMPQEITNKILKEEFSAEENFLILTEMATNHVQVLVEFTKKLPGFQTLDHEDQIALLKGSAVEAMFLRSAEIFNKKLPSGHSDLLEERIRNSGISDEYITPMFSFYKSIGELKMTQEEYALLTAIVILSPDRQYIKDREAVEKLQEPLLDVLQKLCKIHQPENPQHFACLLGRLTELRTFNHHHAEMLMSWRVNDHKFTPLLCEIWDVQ
# Sequence (P19793 whole entry, chain 2 of 2): as the sequence (P19793 whole entry) above
# Experiment: as above
# Conditions: tags: His kept;His cleaved; copies: 1;1; label: surface-attached array probe
# Summary of the method: as §1
row,Binder,binding signal
1,B7,7.83 PBM z-score against 500 random probes
2,B2,8.52 PBM z-score against 500 random probes
3,B3,8.32 PBM z-score against 500 random probes
4,B4,9.18 PBM z-score against 500 random probes
5,B5,9.54 PBM z-score against 500 random probes
6,B6,9.93 PBM z-score against 500 random probes

# Target: PXR:RXRa (Homo sapiens, UniProt O75469;P19793 full;full)
# Sequence (O75469 whole entry, chain 1 of 2): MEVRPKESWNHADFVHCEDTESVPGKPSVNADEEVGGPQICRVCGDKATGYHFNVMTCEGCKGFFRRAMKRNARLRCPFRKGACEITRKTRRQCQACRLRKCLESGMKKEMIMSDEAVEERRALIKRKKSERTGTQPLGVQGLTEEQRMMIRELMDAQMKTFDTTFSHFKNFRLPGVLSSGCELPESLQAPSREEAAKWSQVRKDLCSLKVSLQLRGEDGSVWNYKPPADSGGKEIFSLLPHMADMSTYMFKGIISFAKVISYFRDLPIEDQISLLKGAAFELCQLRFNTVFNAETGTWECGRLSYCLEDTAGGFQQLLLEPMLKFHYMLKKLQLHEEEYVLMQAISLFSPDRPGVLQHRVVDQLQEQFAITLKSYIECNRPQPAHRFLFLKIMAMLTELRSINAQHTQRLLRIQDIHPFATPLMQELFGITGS
# Sequence (P19793 whole entry, chain 2 of 2): as the sequence (P19793 whole entry) above
# Experiment: as above
# Conditions: tags: His kept;His cleaved; copies: 1;1; label: surface-attached array probe
# Summary of the method: as §1
row,Binder,binding signal
1,B7,7.87 PBM z-score against 500 random probes
2,B8,6.95 PBM z-score against 500 random probes
3,B2,7.43 PBM z-score against 500 random probes
4,B3,7.15 PBM z-score against 500 random probes
5,B4,8.14 PBM z-score against 500 random probes
6,B5,7.73 PBM z-score against 500 random probes
7,B6,7.89 PBM z-score against 500 random probes

# Target: RARa:RXRa (Homo sapiens, UniProt P10276;P19793 full;full)
# Experiment: as above
# Conditions: tags: His kept;His cleaved; copies: 1;1; label: surface-attached array probe
# Summary of the method: as §1
row,Binder,binding signal
1,B7,7.16 PBM z-score against 500 random probes
2,B1,-0.36 PBM z-score against 500 random probes
3,B8,7.52 PBM z-score against 500 random probes
4,B2,8.86 PBM z-score against 500 random probes
5,B3,7.45 PBM z-score against 500 random probes
6,B4,9.08 PBM z-score against 500 random probes
7,B5,9.67 PBM z-score against 500 random probes
8,B6,9.62 PBM z-score against 500 random probes

# Target: RARg:RXRa (Homo sapiens, UniProt P13631;P19793 full;full)
# Sequence (P13631 whole entry, chain 1 of 2): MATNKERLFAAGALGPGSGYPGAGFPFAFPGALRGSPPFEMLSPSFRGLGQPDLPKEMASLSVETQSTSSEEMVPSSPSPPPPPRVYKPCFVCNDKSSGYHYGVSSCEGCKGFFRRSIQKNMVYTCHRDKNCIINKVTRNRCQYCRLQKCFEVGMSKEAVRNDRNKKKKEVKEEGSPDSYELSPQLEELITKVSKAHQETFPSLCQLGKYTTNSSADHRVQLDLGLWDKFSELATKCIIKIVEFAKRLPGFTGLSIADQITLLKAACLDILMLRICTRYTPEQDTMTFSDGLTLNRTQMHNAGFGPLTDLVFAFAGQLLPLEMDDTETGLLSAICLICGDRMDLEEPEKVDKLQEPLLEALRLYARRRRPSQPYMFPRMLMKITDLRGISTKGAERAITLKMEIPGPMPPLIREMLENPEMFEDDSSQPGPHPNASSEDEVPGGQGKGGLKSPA
# Sequence (P19793 whole entry, chain 2 of 2): as the sequence (P19793 whole entry) above
# Experiment: as above
# Conditions: tags: His kept;His cleaved; copies: 1;1; label: surface-attached array probe
# Summary of the method: as §1
row,Binder,binding signal
1,B7,7.95 PBM z-score against 500 random probes
2,B8,8.19 PBM z-score against 500 random probes
3,B2,9.36 PBM z-score against 500 random probes
4,B3,7.43 PBM z-score against 500 random probes
5,B4,8.72 PBM z-score against 500 random probes
6,B5,9.65 PBM z-score against 500 random probes
7,B6,9.68 PBM z-score against 500 random probes
